Results from patent US20140223606, “COMPOSITIONS AND METHODS COMPRISING SEQUENCES HAVING MEGANUCLEASE ACTIVITY” (PIONEER HI BRED INTERNATIONAL INC, published 2014).

T1: MHP14(07) (artificial)
T1 chain: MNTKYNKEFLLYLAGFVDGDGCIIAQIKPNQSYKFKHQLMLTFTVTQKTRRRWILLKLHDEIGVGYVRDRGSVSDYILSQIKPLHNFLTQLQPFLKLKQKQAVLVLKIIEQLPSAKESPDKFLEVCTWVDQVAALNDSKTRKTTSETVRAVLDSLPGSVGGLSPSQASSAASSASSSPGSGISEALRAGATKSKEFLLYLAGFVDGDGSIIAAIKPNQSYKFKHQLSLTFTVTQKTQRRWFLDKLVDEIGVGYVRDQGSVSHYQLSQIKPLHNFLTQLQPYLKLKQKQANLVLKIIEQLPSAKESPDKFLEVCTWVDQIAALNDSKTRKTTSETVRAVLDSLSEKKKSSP

T2: MHP14(03) (artificial)
T2 chain: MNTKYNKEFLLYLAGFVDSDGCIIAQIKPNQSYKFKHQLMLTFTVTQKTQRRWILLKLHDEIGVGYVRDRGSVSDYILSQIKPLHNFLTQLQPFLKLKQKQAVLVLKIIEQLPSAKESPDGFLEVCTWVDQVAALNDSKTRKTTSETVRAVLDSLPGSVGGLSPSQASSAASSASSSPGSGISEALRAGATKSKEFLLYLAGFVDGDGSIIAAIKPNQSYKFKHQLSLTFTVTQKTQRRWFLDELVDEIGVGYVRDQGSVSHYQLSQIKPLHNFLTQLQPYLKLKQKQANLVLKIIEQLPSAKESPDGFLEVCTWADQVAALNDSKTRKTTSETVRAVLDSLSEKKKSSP

T3: MHP14(L14-07) (artificial)
T3 chain: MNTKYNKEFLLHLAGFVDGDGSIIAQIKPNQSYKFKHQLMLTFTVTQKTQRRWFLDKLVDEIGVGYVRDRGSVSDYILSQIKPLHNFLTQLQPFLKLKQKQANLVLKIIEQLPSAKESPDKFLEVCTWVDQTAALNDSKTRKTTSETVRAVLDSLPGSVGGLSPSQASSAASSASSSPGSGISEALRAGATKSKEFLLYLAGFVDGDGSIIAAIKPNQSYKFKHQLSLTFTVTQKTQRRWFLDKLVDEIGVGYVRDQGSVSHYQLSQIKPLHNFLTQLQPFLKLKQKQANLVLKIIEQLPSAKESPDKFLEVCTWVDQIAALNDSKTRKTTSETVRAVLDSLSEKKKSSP

T4: ZM6.3(H2) (artificial)
T4 chain: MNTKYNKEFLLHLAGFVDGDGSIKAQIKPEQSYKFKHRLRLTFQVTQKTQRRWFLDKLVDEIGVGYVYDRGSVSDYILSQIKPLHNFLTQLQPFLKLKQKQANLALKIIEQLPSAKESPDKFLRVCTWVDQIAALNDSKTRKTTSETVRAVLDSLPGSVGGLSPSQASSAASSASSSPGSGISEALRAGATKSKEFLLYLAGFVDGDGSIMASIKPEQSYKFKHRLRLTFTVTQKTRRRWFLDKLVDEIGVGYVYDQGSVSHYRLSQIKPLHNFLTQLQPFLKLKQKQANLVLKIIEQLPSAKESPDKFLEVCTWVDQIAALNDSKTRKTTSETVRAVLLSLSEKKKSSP

T5: ZM6.3(H1) (artificial)
T5 chain: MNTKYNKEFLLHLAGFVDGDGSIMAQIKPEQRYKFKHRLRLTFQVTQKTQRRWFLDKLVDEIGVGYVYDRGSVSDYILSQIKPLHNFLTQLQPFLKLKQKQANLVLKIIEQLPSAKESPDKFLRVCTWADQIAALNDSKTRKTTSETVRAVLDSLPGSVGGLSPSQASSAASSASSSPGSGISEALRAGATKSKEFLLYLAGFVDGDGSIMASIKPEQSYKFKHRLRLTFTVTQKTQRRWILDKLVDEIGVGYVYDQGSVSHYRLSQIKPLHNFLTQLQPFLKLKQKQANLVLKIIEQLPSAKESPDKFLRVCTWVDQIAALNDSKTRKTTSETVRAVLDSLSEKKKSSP

B1: MHP14 recognition site (dsDNA)
DNA 1: CAAACAGATTCACGTCAGATTT
DNA 2: AAATCTGACGTGAATCTGTTTG
B2: ZM6.3 recognition site (dsDNA)
DNA 1: CAGGCTCTCGTAAATGCGCCTG
DNA 2: CAGGCGCATTTACGAGAGCCTG

Columns and labels:
Conditions in all cases: tags: NLS, 6xHis
[1] = target: T1, MHP14(07); assay: cell_activity; yeast 37 C; 28 C: 0.5
Method: (§1) A 3 mL culture of selective media (MP Biomedical) was inoculated with a single colony of the yeast screening strain and grown at 30° C. overnight. On the following day, a 50 ml YPD culture (MP Biomedical) was started with 2 ml of the overnight culture and grown at 30° C. overnight. On the following day, the cells were harvested by centrifugation at 4000 rpm. The cells were resuspended in 100 ml ice cold water and centrifuged again. The cells were then washed in 1.2 M sorbitol, followed by treatment with 2 ml of 10 mM Tris pH 8.0, 1 mM EDTA, 100 mM Lithium acetate, 10 mM DTT, 0.6M sorbitol for 30 minutes at 30° C. with shaking. The cells were recovered by centrifugation, washed in 40 ml 1.2M sorbitol and finally resuspended in 250 microliters of 1.2M sorbitol. 50 microliter aliquots were transferred to test tubes on ice. Up to 5 microliters of DNA (100-500 nanograms) were added. The suspension was transferred to a 0.2 cm electroporation cuvette, on ice. Electroporation was performed with a pulse charge at 1.5 kV, 200 ohms, 25 microF (pulse time of 5 milliseconds). 1 mL YPD media (MP Biomedical) was added and the cells were allowed to recover at 30° C. for 1-2 hr. The cells were centrifuged, resuspended in 100 uL 1M sorbitol and plated on selective media lacking leucine and containing 2% galactose. The resulting yeast colonies were incubated at various temperatures ranging from 22 to 37 degrees Celsius for 7-10 days. I-CreI and meganucleases derived from it have maximal activity at or above 37 degrees Celsius. Screening was performed at a range of temperatures from 22 to 37 degrees in order to observe increases in activity at lower temperatures which are relevant to certain biological systems (eg. plant cells, plant cell cultures, etc). At that time the red/white sectoring phenotype, indicative of meganuclease activity was observed. Colonies with increased white sectoring over the parental meganuclease (indicating colonies expressing a meganuclease with increased meganuclease activity), also referred to as “hits” and sometimes completely white, were isolated for further analysis. […]

[2] = target: T2, MHP14(03); assay: cell_activity; yeast 37 C; 28 C: 0.5
Method: as §1

[3] = target: T3, MHP14(L14-07); assay: cell_activity; yeast 37 C; 28 C: 0.5
Method: as §1

[4] = target: T4, ZM6.3(H2); assay: cell_activity; yeast 37 C; 28 C: 2
Method: (§2) A 3 mL culture of selective media (MP Biomedical) was inoculated with a single colony of the yeast screening strain and grown at 30° C. overnight. On the following day, a 50 ml YPD culture (MP Biomedical) was started with 2 ml of the overnight culture and grown at 30° C. overnight. On the following day, the cells were harvested by centrifugation at 4000 rpm. The cells were resuspended in 100 ml ice cold water and centrifuged again. The cells were then washed in 1.2 M sorbitol, followed by treatment with 2 ml of 10 mM Tris pH 8.0, 1 mM EDTA, 100 mM Lithium acetate, 10 mM DTT, 0.6M sorbitol for 30 minutes at 30° C. with shaking. The cells were recovered by centrifugation, washed in 40 ml 1.2M sorbitol and finally resuspended in 250 microliters of 1.2M sorbitol. 50 microliter aliquots were transferred to test tubes on ice. Up to 5 microliters of DNA (100-500 nanograms) were added. The suspension was transferred to a 0.2 cm electroporation cuvette, on ice. Electroporation was performed with a pulse charge at 1.5 kV, 200 ohms, 25 microF (pulse time of 5 milliseconds). 1 mL YPD media (MP Biomedical) was added and the cells were allowed to recover at 30° C. for 1-2 hr. The cells were centrifuged, resuspended in 100 uL 1M sorbitol and plated on selective media lacking leucine and containing 2% galactose. The resulting yeast colonies were incubated at various temperatures ranging from 22 to 37 degrees Celsius for 7-10 days. I-CreI and meganucleases derived from it have maximal activity at or above 37 degrees Celsius. Screening was performed at a range of temperatures from 22 to 37 degrees in order to observe increases in activity at lower temperatures which are relevant to certain biological systems (eg. plant cells, plant cell cultures, etc). At that time the red/white sectoring phenotype, indicative of meganuclease activity was observed. Colonies with increased white sectoring over the parental meganuclease (indicating colonies expressing a meganuclease with increased meganuclease activity), also referred to as “hits” and sometimes completely white, were isolated for further analysis.
(§3) A total of 15 Zm6.3 variants with increased activity were confirmed in the yeast system (as described in Example 6). Increased activity was observed across a range of temperatures: 28 degrees Celsius, 30 degrees Celsius and 37 degrees Celsius, as shown in Table 15.

[5] = target: T5, ZM6.3(H1); assay: cell_activity; yeast 37 C; 28 C: 4
Method: as §2, §3

| Binder | activity [1] [score 0-4] | activity [2] [score 0-4] | activity [3] [score 0-4] | activity [4] [score 0-4] | activity [5] [score 0-4] |
| --- | --- | --- | --- | --- | --- |
| B1 | 2.5 | 3 | 4 |  |  |
| B2 |  |  |  | 4 | 4 |
